In the nanobody polyreactivity screen of Harvey et al. (2022):

Assay: yeast display, Sf9 membrane polyspecificity reagent, FACS + sequencing; frameworks hold sequencing errors
How it was run: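 Sorting gates, low and high (top ~1%), were placed on anti-HA fluorescence to track expression and on streptavidin fluorescence to track reagent binding. A clone's polyreactivity label is taken from the gate it came out of. The reagent was 10% biotinylated, detergent-solubilized Sf9 membrane, applied for 1 hour at 4 °C to galactose-induced yeast display cells.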

Sequence	polyreactivity (PSR sort gate)
QDQLVESGGGLVQAGGSLRLSCAASGSTFYTYAMGWYRQEPGKERELVAAISYRGGSSYYAVSVKGRFTISRDNAKYTVYLQMNSLKPEDTAVYYCAAKVSRAGDFWGQGTQVTVSS	low polyreactivity
QDQLVESGGGLVQAGGSLRLSCAASGSTFYWYTMGWYRQAPGKESEMVATITSVGRTNYADSVKGRFTISRDNAKNTVYLQMNSLKPEDTAVYYCAASKARWARGGSKYYYWGQGTQVTVSS	high polyreactivity
QDQLVESGGGLVQAGGSLRLSCAASGSTIDDYARGWYRQAPGKERELVAAITWTSTDTYADSVKGRFTISRDNAKNTVYLQMNCLKPEDTAVYYCATDFIWDTAVTGGPNDWEYDYWGQGTQVTVSS	low polyreactivity
QDQLVESGGGLVQAGGSLRLSCAASGSTIRVKAMGWYRLAPGKERELVAGISKSGTSTYYADSVKGRFTISRDNAKNTVYLQMNSLKPEDTAAYYCATHLGRRTSGSRFGYWGQGTQVTVSS	high polyreactivity
QDQLVESGGGLVQAGGSLRLSCAASGSTLARYGMGWYRQAPGKERELVAAISYSGGRTYYADSVKGRFTISRDNAKNTVYLQMNSLKPEDTAVYYCAARRVYVPRGPIEFYYWGQGTQVTVSS	high polyreactivity
QDQLVESGGGLVQAGGSLRLSCAASGSTLFIYARGWYRQAPGKEREFVAGISYSGGSTYYADSVKGRFTISRDNAKNTVYLQMNSLKPEDTAVYYCAAATVYLSWYYWGQGTQVTVSS	high polyreactivity
QDQLVESGGGLVQAGGSLRLSCAASGSTLYAYAMGWYRQAPGKERELVAAISFSTTSTYYADSVKGRFTISRDYEKNTVYLQMNSLKPEDTAVYYCAAEYWYYWEYEYWGLGTQVTVSS	high polyreactivity
QDQLVESGGGLVQAGGSLRLSCAASGYIFLRNAMGWYRQAPGKERELVATISRTGRTNYADSVKGRFTISRDNAKNTVFLHMNSLKPEDTAVYYCAAASVFGRIRLWYDYWGQGTQVTVSS	high polyreactivity
QDQLVESGGGLVQAGGSLRLSCAASGYTFRYAMGWNIQAPGKERELVAGITSSGGSTYYADSVKGRFTISRDNAKNTVYLQMNSLKPEDTAVYYCNADFFVWLYPHYLIFDYWGQGTQVTVSS	low polyreactivity
QDQLVESGGGLVQAGGSLRLSCAASVSTFYVYAMGWYRQAPGKERELVAAITRGGSTYYADSVKGRFTISRDNAKNTVYLQMNSLKPEDTAGYYCAADYGSRWGYDYCGQGTQVTVSS	low polyreactivity
QDQLVESGGGLVQAGGSLRLSCAAYGIIFWDNAMGWYRQAPGKERELVASINYSGGSTYYADSVKGRFTISRDNAKNTVYLQMYSLKPEDTAVYYCAARTVTLDDWDYAYDYWGQGTQVTVSS	low polyreactivity
QDQLVESGGGLVQAGGSLRLSCAPSGFIFDDNAMGWYRQAPGKERELVAAITSGGGSTYYADSVKGRFTISRDNAKNTFYLQMNSLKPEDTAVYYCNKVYGWYSFKWGPTASDYWGQGTQVTVSS	low polyreactivity
QDQLVESGGGLVQAGGSLRLSCAPSGSIFYRNAMGWYRQAPGKERELVAAIRYSGDNTYYADSVKGRFTISRDNSKNTVYLQMNSLKPEDTAVYYCAADFPDYEYWGQGTQVTVSS	high polyreactivity
QDQLVESGGGLVQAGGSLRLSCASSGFTFNGYAMGWYRQAPGKERELVAAINISGGSTYYADSVKGRFTISRDNAKNTVYLQMNSLNPEDTAVYYCAARLWGKRYSYRYGYWGQGTQVTVSS	high polyreactivity
QDQLVESGGGLVQAGGSLSLSCAASGRTFYWYVMGWYRQAPGKERELVAAITQTGSSSYYADSVKGRFTISRDNAKNTVYLQMNSLKPEDTAVYYCADRLSRNHYEVDYWGQGTQVTVSS	low polyreactivity
QDQLVESGGGLVQAGGSLSLSCAASGSIFGKYTMGWYRQAPGKERELVAGITYRAGSTYYADSVKGRFTISRDNAKITVYLQMNSLKPEDTAVYYCAARFYFRWYYYGSYANYWGQGTQVTVSS	high polyreactivity
QDQLVESGGGLVQAGGSRRLSCAASGSIFIYAMGWYRQAPGNERELVATIDSGGSTNYADSVKGRFTISRDNAKNTFYLQMNSLKPEDTAVYYFAARPYTTYHYVDDYWGQGTQVTVSS	high polyreactivity
QDQLVESGGGLVQAGGTLRLSCDASGSTFFRNAMGWYRQPPGKEREMVADISASGGSTYYADSVKGRFTISRDNAKNTVYLQMNSLKPEDNADYYCNALYIYFYNYLTMDYWGQGSQVTVSS	low polyreactivity
QDQLVESGGGLVQAGVSLRLSCAASGRTIRHNPMGWYIQAPGKERELVATINRGGNTYYADSVKGRFTISRDNAKNTVYLQMISLKPEDTAVYYCAARRSFLFDDGNYWGQVTQVTVSS	low polyreactivity
QDQLVESGGGLVQAGVSLRLSCPASGNIFNGKAMGWYRQAPGKERELVAAISSGGGSTYYADSVKGRFTISRDNAMNTVYLQMNSLKPEDTAVYYCAASRVRYSYGYPYYYWGQGTQVTVSS	high polyreactivity
QDQLVESGGGLVQARGSLRLSCAASGYIFPFYAMGWYRQAPGKESELVASISSSSGRTNYADSVKGRFTISRDNAMNTVYLQMNSLKPEDTAVYYCSAAYLRYVSTQYHYDYWGQGTQVTVSS	low polyreactivity
QDQLVESGGGLVQEGGSLRLSCAASGLIFTYYAMGWYRQAPGKERELVAAINYSGGSTYYADSVKGRFTISRDNAKNTVYLQMNSLKPEDTAVYYCDARRVTQTEGPMGYWGQGTQVTVSS	low polyreactivity

Sequence	polyreactivity (PSR sort gate)
QDQLVESGGGLVQEGGSLRLSCAASGSIFARNAMGWYRQAPGKERELVAAISRSGGSTYYADSVKGRFTISRDNAKNTVYVQMNSMKPEDTAVYFCNAVQRYSQGDYWGHGTQVTVSS	high polyreactivity
QDQLVESGGGLVQPGGSLRLSCAASGRTFRFNAMGWYRQAPGKERELVAVITSNDGSTYYADSVKGRFTISRDNAKNTVYLQMNSLKPEDTAVYYCAADWSYAWSWFYYWGQGTQVTVSS	low polyreactivity
QDQLVESGGGLVQSGGSLRLSCAASGFIFPHYAMGWYRPAPGKERELVAAISKSGDSTYYADSVKGRFSISRDNAKNTVYLQMNSLKPEDTAVYYCARRGRSLLWKYDYWRQGTQVTVSS	low polyreactivity
QDQLVESGGVLVQAGGSLRLSCAASGSIFFRNAMGWYRQAPGKERELVAGIRWSGGSTYYADSVKARFTISRDNAKNTVYLQMNSLKPEDSAVYYCAASRYRPARVQYSYDYWGQGTQVTVSS	high polyreactivity
QDQLVESGRGLVQAGGSLRLSCAASGFIFYNYAMGWYIQAPGKERELVAAISASGGRTYFADSVQGRFTISRDNAKNTVYLQMNRLKPEDTAFYYCNARVNYKGYDYWGQGTQVTVSS	high polyreactivity
QDQLVESGRGLVQAGGSLRLSCAASGSINATNAMGWYRQAPGKERELVPSISYSVSRTYYADSVKGRFTISRDNAKNTVYFQMNSLTPEDTAVYYCAVRQVNWFGIGYEDDYCGQGTQVTVSS	low polyreactivity
QDQLVESGVGLDQAGVSLRLSCAASGRTFKGNAMGWYSQATGKESELVAVITGSGGSTYYADSVKGRFTISRDNAKNTVYLQMTSLKPEDTAVYYCNKTLQRRSWYDYWGQGTQVTVSS	low polyreactivity
QDQLVESGVGLVQAGGSLRLSCAASGRTYFSHTMGWYRQAPGKERQLVAAITRSGGTTYYADSVKGRFTISRDNAKNTVYLQMNSLKPEDTAVYYCAARTSYAFYYPRDYWGQGTQVTVSS	high polyreactivity
QDQLVESGVGLVQAGGSLRLSCAASGSTFYYYAMGWYRQAPGKERELVAAITSDGSTNYADSVKGRFTISRDNAKNTVYLQMNSLKTEDTAVYYCAKTYYWGYDWGQGTQVTVSS	low polyreactivity
QDQLVESRGGLVQAGGSLGLSCAASGSIFSYYAMGWYRQAPGKERELVAAITSGGATTYYADSVKGRFTISRDYAKNTVYLQMNSLKPEDTAVYYCAAGYYVYYRWWELDYWGQGTQVTVSS	low polyreactivity
QDQLVESRGGLVQAGGSLRISCAASGSPFYRNAKGWNTQAPGKERELVATISTGGVSTYYADSVKGRFTISRDNAKNTVYLQMNSLKPEDTAVYYCAQRTVYLSNLDYWGQGTQVTVTS	low polyreactivity
QDQLVESRGGLVQAGGSLRLSCAASGINIGTNAMGWYRQAPGKERELVAAISGGGSTDYADSVKGRFTISRDNAKNPVYLQMNSLKPEDPAFYYCAANTGPVPLKGDYWGQGTQVTVSS	low polyreactivity
QDQLVESRGGLVQAGGSLRLSCAASGLIFWRYTMGWYSQAPGKERELVAAINRSGGSTYYADSVKGRFTISRDNAKNTVYFQMNSLKPDDPAVYYCAASGYRYPIDGDYWGLGTQVTVSS	high polyreactivity
QDQLVESRGGLVQAGGSLRLSCAASGRIFGYNAMGWYTQAPGKERELVAGITSVGRTYYADSVKGRFTISRDNAKNTVYLQMNSLKPEDTAVYYCNAASYSLAVTAEYEDMDYWGQGTQVTVTS	low polyreactivity
QDQLVESRGGLVQAGGSLRVSCAASGLSFGYYAMGWYRQATGKERELVAAISSSGVNTYYADSVKGRFTISRDNPKNTVYLQMNSLIPEDTAVYYCNTVPKPWYSWKYAYDYWGQGTQVTVSS	high polyreactivity
QDQLVESRVGLVQAGGSLRLSCAASGMIIGIYDMGWYRQAPGKERELVAAIRRSGGSTYYADSVKGRFTISRDNAKNTVYLQMYSLKPEDTAAYYCATDAWYYSQTNHDYWGQGTHVTVSS	low polyreactivity
QDQLVESVGCLVQAGGSLRLSCAASGLTIQRNDMGWYRQAPGKEREFVATITSNAGSTYYADSVKGRFTISRDNAKNTVYLQKNSLKPEDTAVYYCARERWWGGSDYWGQGTQVTVSS	high polyreactivity
QDQLVESVGDLVQAGGSLRLSCAASGGIFQKYVMGWYRQAPGKERELVARITSVGSTYYADSVKGRFTISRDNAKNTVYLQMNSLKPEDTAVYYCNAELYRRSQGYRFTAFDYWGQGTQVTVSS	low polyreactivity
QDQLVESVGGLVQAGGSLRLIFAASGSILTFYAMGWYRQAPGKERELVAAITWRGCSTYYADSVKGRFTISRDNEKNTVYLQMNSLKPEDTAVYYCAAERYGPRYDYWGQGTQVTLSS	high polyreactivity
QDQLVESVGGLVQAGGSLRLSCAASGFTFYNYAMGWYRQAPGKERELVAAISWNGGSTYYADSVKGRFTISRDNAKNTVYLQMNSLKPEDTAVYYCNADISQRTRGYYYVWWSRMDYWGQGTQVTVSS	low polyreactivity
QDQLVESVGGLVQAGGSLRLSCAASGLIFSRNVMGWYRQGPGTERELVAAITRSGGSTYYADSVKGRFTISRDNAKNTVYLQMNSLKPVDTAVYYCAASRFNYVYLLKGDYWGQGTQVTVSS	high polyreactivity
